Test results as given in patent US20120295975A1 (University of California, published 2012).
Each block holds one binder with its values, some of them ahead of it.

What was measured:
[1] = biological target: T1, transforming growth factor-β activated kinase 1 (TAK1), endogenous, RAW 264.7 cells (mouse, UniProt Q62073 1-579); assay: co-IP, RAW 264.7 cells (FIG. 3H)
T1 construct: Endogenous protein in cell lysate
T1 sequence (looked up): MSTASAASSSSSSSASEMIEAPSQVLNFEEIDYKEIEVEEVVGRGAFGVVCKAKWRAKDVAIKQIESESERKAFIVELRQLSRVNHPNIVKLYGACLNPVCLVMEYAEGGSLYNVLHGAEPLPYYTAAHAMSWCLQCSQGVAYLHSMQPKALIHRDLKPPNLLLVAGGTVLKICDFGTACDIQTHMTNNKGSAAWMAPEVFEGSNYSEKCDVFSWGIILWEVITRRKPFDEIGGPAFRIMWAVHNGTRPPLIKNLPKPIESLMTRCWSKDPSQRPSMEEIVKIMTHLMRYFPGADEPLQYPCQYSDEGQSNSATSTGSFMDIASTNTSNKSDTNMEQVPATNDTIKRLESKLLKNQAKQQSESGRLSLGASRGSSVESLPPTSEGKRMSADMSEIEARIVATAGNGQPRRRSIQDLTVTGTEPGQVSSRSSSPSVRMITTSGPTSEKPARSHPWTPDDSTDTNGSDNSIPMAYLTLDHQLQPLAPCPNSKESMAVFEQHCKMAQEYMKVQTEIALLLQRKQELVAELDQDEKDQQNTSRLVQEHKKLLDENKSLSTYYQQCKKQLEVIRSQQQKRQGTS
Procedure: (§1) FIG. 3. GPR120 internalization with β-arrestin2 mediates anti-inflammatory effects. (A) RAW 264.7 cells were transfected with siRNA as indicated and stimulated with or without 100 μM of DHA 1 hr prior to LPS (100 ng/ml) treatment for 10 min and then subjected to western blotting. […] (C) Phosphorylation of TAK1 and MKK4 in RAW 264.7 cells with or without siRNA transfection as indicated. (D) HEK 293 cells were co-transfected with HA-GPR120 and β-arrestin2.GFP to analyze GPR120 internalization after DHA stimulation for the indicated times. GPR120 (left column) and β-arrestin2 (middle column) were localized by confocal microscopy. (E) Co-immunoprecipitation between GPR120 and β-arrestin2 with DHA stimulation for 30 min in RAW 264.7 cells and, (F) HEK 293 cells (HA-GPR120 and (β-arrestin2*GFP), respectively. Lysate indicates 1/10 input in each experiment. Interaction between TAB1 and β-arrestin2 (G), and interaction between TAB1 and TAK1 (H) were detected by co-immunoprecipitation and the scanned bar graph quantitates the association in RAW 264.7 cells. (I) Schematic diagram of the β-arrestin2 and GPR120-mediated anti-inflammatory mechanism. The left half of the diagram indicate the DHA-mediated anti-inflammatory effect, and the right half of the diagram indicate the LPS- and TNF-α-induced inflammatory pathway. See also FIG. 9. […]

[2] = biological target: T2, β-arrestin2 (endogenous, RAW 264.7 cells) (mouse, UniProt Q91YI4 1-410); assay: co-IP, RAW 264.7 cells, DHA 30 min (FIG. 3E)
T2 construct: Endogenous protein in cell lysate; also called βarr2
Procedure: as §1

T2 sequence (Q91YI4 whole entry): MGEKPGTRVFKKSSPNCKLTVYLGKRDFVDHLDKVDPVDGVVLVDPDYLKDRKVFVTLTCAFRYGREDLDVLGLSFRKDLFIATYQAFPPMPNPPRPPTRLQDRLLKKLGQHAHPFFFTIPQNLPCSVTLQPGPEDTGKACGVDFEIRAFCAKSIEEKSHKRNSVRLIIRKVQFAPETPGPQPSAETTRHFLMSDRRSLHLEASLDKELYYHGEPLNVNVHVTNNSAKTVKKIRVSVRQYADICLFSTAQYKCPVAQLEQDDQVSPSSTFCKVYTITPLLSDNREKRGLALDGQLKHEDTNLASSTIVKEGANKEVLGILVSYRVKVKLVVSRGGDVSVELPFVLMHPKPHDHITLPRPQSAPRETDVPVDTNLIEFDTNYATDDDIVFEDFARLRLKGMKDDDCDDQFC

- binding result [1]: binds
B1: TAK1 binding protein 1 (TAB1), endogenous, RAW 264.7 cells (other, mouse, UniProt Q8CF89 1-502, looked up)
chain: MAAQRRSLLQSEQQPSWTDDLPLCHLSGVGSASNRSYSADGKGTESHPPEDNWLKFRSENNCFLYGVFNGYDGNRVTNFVAQRLSAELLLGQLNTEHTEADVRRVLLQAFDVVERSFLESIDDALAEKASLQSQLPEGVPQHQLPPQYQKILERLKALEREISGGAMAVVAVLLNSKLYVANVGTNRALLCKSTVDGLQVTQLNMDHTTENEDELFRLSQLGLDAGKIKQMGVICGQESTRRIGDYKVKYGYTDIDLLSAAKSKPIIAEPEIHGAQPLDGVTGFLVLMSEGLYKALEAAHGPGQANQEIAAMIDTEFAKQTSLDAVAQAVVDRVKRIHSDTFASGGERAKFCPRHEDMTLLVRNFGYPLGEMSQPTPTPAPGGRVYPVSVPYSSAQSTSKTSVTLSLVMPSQGQMVNGSHSASTLDEATPTLTNQSPTLTLQSTNTHTQSSSSSSDGGLFRSRPAHSLPPGEDGRVEPYVDFAEFYRLWSVDHGEQSVMTAP
notes: Endogenous protein in cell lysate

- binding result [2]: binds
B2: GPR120 (endogenous, RAW 264.7 cells) (receptor, mouse, UniProt Q7TMA4 1-361, looked up)
chain: MSPECAQTTGPGPSHTLDQVNRTHFPFFSDVKGDHRLVLSVVETTVLGLIFVVSLLGNVCALVLVARRRRRGATASLVLNLFCADLLFTSAIPLVLVVRWTEAWLLGPVVCHLLFYVMTMSGSVTILTLAAVSLERMVCIVRLRRGLSGPGRRTQAALLAFIWGYSALAALPLCILFRVVPQRLPGGDQEIPICTLDWPNRIGEISWDVFFVTLNFLVPGLVIVISYSKILQITKASRKRLTLSLAYSESHQIRVSQQDYRLFRTLFLLMVSFFIMWSPIIITILLILIQNFRQDLVIWPSLFFWVVAFTFANSALNPILYNMSLFRNEWRKIFCCFFFPEKGAIFTDTSVRRNDLSVISS
notes: whole, on cells; also called ω-3 FA receptor/sensor
